Assay [1] has as its target T1, Dimeric soluble human TIM-3 mIgG2a Fc (human; mouse, UniProt Q8TDQ0 22-200).
T1 construct: Captured on an anti-mouse IgG (Fc-specific) Biacore CM5 surface; also called soluble TIM-3 fusion; not shown: mouse IgG2a Fc
T1 sequence (looked up): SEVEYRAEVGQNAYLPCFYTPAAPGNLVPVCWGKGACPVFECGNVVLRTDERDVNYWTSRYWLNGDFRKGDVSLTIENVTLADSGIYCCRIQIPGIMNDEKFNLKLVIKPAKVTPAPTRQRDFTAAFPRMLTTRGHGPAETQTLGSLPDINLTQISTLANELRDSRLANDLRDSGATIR
Put plainly: SPR Biacore T200; TIM-3 fusion captured on anti-mouse IgG Fc, antibody flowed over; 1:1 model. The method, then:
SPR analyses were carried out using a Biacore T200, and kinetic constants were determined using Biacore T200 Evaluation software. […] GE anti-mouse IgG (Fc-specific) was immobilized on a Biacore CM5 chip using EDC-activated amine coupling chemistry. Dimeric soluble human TIM-3 mIgG2a Fc was then captured onto this surface to a target capture level of ˜70 RU or less. Next an exemplary anti-TIM-3 antibody (having heavy and light chains as set forth in SEQ ID NOs: 1 & 2, respectively) was flowed over the surface with captured antigen (TIM-3 fusion). Capture and analyte binding were performed in HBS-EP+ buffer. The captured antigen and antibodies were removed between each cycle to ensure a fresh binding surface for each concentration of […]. The resulting sensorgrams were fitted globally using a 1:1 binding model to calculate on- and off-rates (kassoc and kdissoc, respectively), and dissociation constants as a measure of overall affinity (KD).

In assay [2] the target is T2, native cynomolgus monkey TIM-3 stably transfected in CHO-K1 cells (cynomolgus monkey, UniProt A0A2K5U3G7 22-294).
T2 construct: whole, on cells; also called cell-surface cynomolgus monkey TIM-3; cynomolgus monkey TIM-3 expressing CHO-K1 cells
T2 sequence: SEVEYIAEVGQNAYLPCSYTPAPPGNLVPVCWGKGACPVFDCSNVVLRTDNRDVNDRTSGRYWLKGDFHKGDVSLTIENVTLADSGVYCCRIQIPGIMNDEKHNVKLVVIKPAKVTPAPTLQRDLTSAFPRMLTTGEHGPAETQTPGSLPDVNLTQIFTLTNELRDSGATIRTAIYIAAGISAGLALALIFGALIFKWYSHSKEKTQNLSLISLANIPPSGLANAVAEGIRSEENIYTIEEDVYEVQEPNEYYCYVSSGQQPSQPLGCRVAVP
Put plainly: flow cytometry on cynomolgus monkey TIM-3 expressing CHO-K1 cells, PE anti-human IgG4 detection. The method, then: (§1) Flow cytometry studies were performed with CHO-K1 cell line clones in which native human or cynomolgus monkey TIM-3 was stably transfected. An exemplary anti-TIM-3 antibody (having heavy and light chains as set forth in SEQ ID NOs: 1 & 2, respectively) was diluted in 3-fold dilutions. Dilutions of exemplary antibody were added to human or cynomolgus monkey TIM-3 expressing CHO-K1 cells (1E5 cells) and incubated on ice. Cells were washed twice and incubated on ice with PE-conjugated goat anti-human IgG4 to detect antibody binding. Cells were washed and resuspended in the presence of propidium iodide to exclude dead cells and fixed before fluorescence was analyzed on a BD FACSArray (BD Biosciences). Data were analyzed for median fluorescence intensity, graphed, and curves fitted for EC₅₀ value calculation in GraphPad Prism (GraphPad Software, Inc.) using a non-linear (sigmoidal) regression analysis.

In assay [3] the target is T3, soluble cynomolgus monkey TIM-3 fusion (cynomolgus monkey, UniProt A0A2K5U3G7 22-195).
T3 construct: The SPR method describes only the human mIgG2a Fc fusion; not shown: mIgG2a Fc i
T3 sequence: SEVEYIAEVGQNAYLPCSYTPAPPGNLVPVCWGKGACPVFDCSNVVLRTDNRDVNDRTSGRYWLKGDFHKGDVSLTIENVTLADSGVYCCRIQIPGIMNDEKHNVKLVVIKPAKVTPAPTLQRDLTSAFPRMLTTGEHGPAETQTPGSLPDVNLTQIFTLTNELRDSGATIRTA
Put plainly: SPR Biacore T200; captured TIM-3 fusion, antibody flowed over; 1:1 model.

Assay [4] concerns the target T4, native human TIM-3 stably transfected in CHO-K1 cells (human, UniProt Q8TDQ0 22-301).
T4 construct: whole, on cells; also called cell-surface human TIM-3; human TIM-3 expressing CHO-K1 cells
T4 sequence (looked up): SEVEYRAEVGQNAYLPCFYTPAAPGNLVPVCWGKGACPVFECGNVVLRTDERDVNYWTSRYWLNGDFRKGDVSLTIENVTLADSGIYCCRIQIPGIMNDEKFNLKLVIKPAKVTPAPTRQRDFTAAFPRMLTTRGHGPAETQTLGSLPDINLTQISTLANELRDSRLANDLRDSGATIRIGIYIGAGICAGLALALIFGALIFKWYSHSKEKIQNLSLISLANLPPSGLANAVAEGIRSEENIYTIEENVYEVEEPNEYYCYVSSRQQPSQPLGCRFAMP
Briefly: flow cytometry on human TIM-3 expressing CHO-K1 cells, PE anti-human IgG4 detection. The method, then: as §1
On the technique in general: In flow cytometry, cells or beads pass a laser one at a time.

B1: exemplary anti-TIM-3 antibody (having heavy and light chains as set forth in SEQ ID NOs: 1 & 2, respectively) (antibody, human IgG4 S228P, kappa, V domains shown)
VH: EVQLLESGGGLVQPGGSLRLSCAAASGFTFSSYDMSWVRQAPGKGLDWVSTISGGGTYTYYQDSVKGRFTISRDNSKNTLYLQMNSLRAEDTAVYYCASMDYWGQGTTVTVSS
VL: DIQMTQSPSSLSASVGDRVTITCRASQSIRRYLNWYHQKPGKAPKLLIYGASTLQSGVPSRFSGSGSGTDFTLTISSLQPEDFAVYYCQQSHSAPLTFGGGTKVEIKR
modifications: N-glycosylation at asparagine residue 290 of SEQ ID NO:1
notes: Humanized IgG4 (human IGHG4*01) / kappa (IGKC*01); also called exemplary humanized monoclonal anti-TIM-3 antibody; anti-TIM-3 mAb
As for B1, the dissociation constant (Kd) (as a rule, the equilibrium constant for the complex coming apart) in assay [1] is 0.007 nM; in assay [3] it was 0.017 nM. Besides, the koff (in general, the first-order rate constant of dissociation) in assay [1] was found to be 0.00011 s⁻¹; in assay [3], 0.00019 s⁻¹. Further, the figures for the kon in assay [1] and in assay [3] were 1.5e+07 M⁻¹ s⁻¹ and 1.1e+07 M⁻¹ s⁻¹, respectively. In addition, the EC50 (usually the concentration needed to bring the measured effect to its halfway point) amounted to 0.27 nM in assay [2] and 0.17 nM in assay [4].

(Values after patent US20190284280A1 (ANAPTYSBIO, published 2019).)
